# Experimental data as given in PMC8395149, “Der f 38 Is a Novel TLR4-Binding Allergen Related to Allergy Pathogenesis from Dermatophagoides farinae” (International Journal of Molecular Sciences, 2021).
# Where two headings read alike, the source gives them in different places.
# B1: recombinant MD2 (natural protein, UniProt Q9Y6Y9 19-160, looked up)
# chain: QKQYWVCNSSDASISYTYCDKMQYPISINVNPCIELKRSKGLLHIFYIPRRDLKQLYFNLYITVNTMNLPKRKEVICRGSDDDYSFCRALKGETVNTTISFSFKGIKFSKGKYKCVVEAISGSPEEMLFCLEFVILHQPNSN
# notes: MD2 (MD-2, lymphocyte antigen 96), recombinant protein from R&D Systems; source: bought: R&D Systems
# Target: T1, recombinant TLR4 (UniProt O00206 24-631)
# T1 construct: Toll-like receptor 4 (TLR4), recombinant protein from R&D Systems; also called Toll-like receptor 4; source: bought: R&D Systems
# T1 sequence (O00206 24-631): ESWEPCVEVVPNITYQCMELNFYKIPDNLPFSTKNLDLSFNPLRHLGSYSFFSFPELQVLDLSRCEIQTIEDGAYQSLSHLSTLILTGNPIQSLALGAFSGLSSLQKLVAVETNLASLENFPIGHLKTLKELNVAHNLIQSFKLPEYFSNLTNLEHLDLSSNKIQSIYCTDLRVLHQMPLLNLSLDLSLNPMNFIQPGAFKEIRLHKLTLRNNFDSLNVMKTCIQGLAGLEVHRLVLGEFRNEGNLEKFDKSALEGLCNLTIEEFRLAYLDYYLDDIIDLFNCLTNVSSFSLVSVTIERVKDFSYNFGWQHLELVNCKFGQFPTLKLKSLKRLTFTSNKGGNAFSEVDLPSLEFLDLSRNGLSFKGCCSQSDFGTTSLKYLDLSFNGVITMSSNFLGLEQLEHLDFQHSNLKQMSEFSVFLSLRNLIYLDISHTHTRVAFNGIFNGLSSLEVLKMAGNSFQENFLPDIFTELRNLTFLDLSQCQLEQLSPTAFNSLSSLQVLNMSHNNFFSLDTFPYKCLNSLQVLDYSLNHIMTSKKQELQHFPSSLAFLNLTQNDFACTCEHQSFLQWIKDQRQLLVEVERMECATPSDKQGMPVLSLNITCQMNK
# Assay: BLI; Octet QKe; recombinant TLR4 (1 ug/mL) immobilised in PBS by amine coupling on an AR2G sensor, blocked with 1 M ethanolamine pH 8.5; sensors dipped in 2-fold dilutions of Der f 38 (6400-400 nM and blank); association 300 s, dissociation 1200 s in assay buffer
Kd [nM],Kd (both partners purified) [nM],Molecule
74,,recombinant Der f 38 (natural protein)
,1.56,B1
